Data from article PMC11161652, “ASXLs binding to the PHD2/3 fingers of MLL4 provides a mechanism for the recruitment of BAP1 to active enhancers” (Nature Communications, 2024).

Experiments:
GST-MLL3PHD2/3 = assay: GST pull-down, WT MLL3PHD2/3; type: binding, human; details: WT GST-MLL3PHD2/3; HEK293FT lysate, 3 h at 4 °C, western blot; n = 3
Description: (§1) Pull-down assays were performed by mixing resin-bound GST-MLL3PHD2/3 and GST-MLL4PHD2/3 (wild type and mutants) with lysates of HEK293FT expressing Myc-ASXL1, Myc-ASXL2 or Myc-ASXL2ΔMBH. Pellets of HEK293FT cells transfected with the appropriate pDEST expression construct (15 μg/dish using polyethylenimine (PEI)) were lysed with 10 times their volume of lysis buffer (50 mM Tris pH 7.3, 100 mM NaCl, 1 mM DTT, 1 mM EDTA, 1 mM PMSF, 0.1% Tween20, 1/100 anti-protease (Sigma)) and sonicated with a probe sonicator (Branson digital sonifier 450) calibrated at 40% amplitude for 3–4 rounds during 40–60 s. Lysates were then centrifuged in a Sorvall Lynx 6000 (rotor: F21-8x50Y) at 15,000 RPM during 20 min. Approximatively 9 μg of purified GST-fusion proteins bound to GSH resin (Sigma, G4510) were used for each condition. Final volume of GSH resin was adjusted to 30 μl per condition with empty GSH beads and incubated with 1.5 mL of HEK293FT lysate expressing Myc-ASXL1, Myc-ASXL2 or Myc-ASXL2ΔMBH for 3 h at 4 °C on a rotative system. A fraction of the reaction mixture (80 μL) was collected as the input. After the incubation, beads were washed 5 times and mixed with 100 μL of Laemmli buffer. Samples were loaded on 8% or 15% SDS-acrylamide gels and processed for western blotting.

GST-MLL4PHD2/3 = assay: GST pull-down, WT MLL4PHD2/3; type: binding, human; details: WT GST-MLL4PHD2/3; HEK293FT lysate, 3 h at 4 °C, western blot; n = 3
Description: as §1

PR-DUB complex = assay: Tandem affinity purification: association with PR-DUB complex; type: cell-based, human; details: K562 soluble nuclear extracts, 3Flag-2Strep tag, western blot and mass spectrometry
Description: (§2) Isogenic K562 cell lines expressing 3xFlag2xStrep-tagged ASXL2 WT and ΔMBH (aa 650-670), were generated by integration at the AAVS1 safe harbor locus after DSB induction and recombination targeted by co-transfection with a ZFN expression plasmid, as previously described. 2 × 10^5 cells were transfected with 400 ng of ZFN expression vector and 4 μg of donor constructs. Selection and cloning were performed in RPMI medium supplemented with 0.5 μg/mL puromycin starting 2–3 days post transfection. Clones were obtained by limiting dilution and expanded before harvest for western blot analysis.
(§3) For purification of native complexes, after large-scale expansion of K562 clones, affinity purifications of tagged ASXL2 WT and ΔMBH (aa 650-670) were performed on nuclear extracts as previously described. Briefly, nuclear extracts were prepared following standard procedures and pre-cleared with CL6B Sepharose beads. […] Typically, 5–15 μl of the elutions (1–3% of total) was loaded on NuPAGE 4–12% Bis-Tris gels (Invitrogen) and analyzed by silver staining and western blots. […] Purified fractions were prepared and analyzed at the Proteomics Platform of the Quebec Genomic Center using an Orbitrap Fusion mass spectrometer (Thermo Fisher Scientific) as previously described. […]

MLL3/4 complexes = assay: Tandem affinity purification: interaction with MLL3/4 complexes; type: cell-based, human; details: K562 soluble nuclear extracts, 3Flag-2Strep tag, western blot and mass spectrometry
Description: as §2, §3

H2AK119 = H2AK119 deubiquitination assay; type: biochemical, human
Description: The deubiquitination reactions were done by adding equivalent amounts of ASXL2 WT or ΔMBH (4 μl E1-F) native complexes purified from K562 cells to 0.5 μg of chromatin enriched extracts from K562 cells, incubated at 37 °C in 50 mM Tris-HCl pH 7.3, 50 mM NaCl, 1 mM MgCl2, 1 mM DTT, 1 mM PMSF, 10 μg/ml Leupeptin, 10 μg/ml Pepstatin A, 25 μg/ml Aprotinin. After 3 or 6 h incubation, 4X Laemmli buffer was added, the samples run on 15% SDS-PAGE and transferred on nitrocellulose membrane. Immunoblotting was performed with an anti-H2AK119ub (Cell Signaling, D27C4, rabbit polyclonal) diluted 1:2000 followed by HRP conjugated secondary goat anti-rabbit antibody (Sigma) used at a 1:10,000 dilution. The immunoblots were visualized using a Western Lightning plus-ECL reagent (Perkin-Elmer). Anti-H3 (Abcam, Ab1791, rabbit polyclonal) was used at a 1:50,000 dilution.
Cell pellets were harvested 2 days post-transfection and lysed with 10 times their own volume with EB300 lysis buffer (50 mM Tris pH 7.3, 300 mM NaCl, 0.5% Triton X100 (V/V), 5 mM EDTA, 50 mM NaF, 1 mM Na3VO4 (activated), 10 mM Beta-glycerol-phosphate, 1 mM DTT, 1 mM PMSF, 1/100 anti-protease (Sigma)). Lysates were incubated on ice for 30 min before centrifugation in a Sorvall Lynx 6000 (rotor: F21-8x50Y) at 15,000 RPM during 20 min. Supernatants were collected and diluted with EB0 (50 mM Tris pH 7.3, 0.5% Triton X100 (V/V), 5 mM EDTA, 50 mM NaF, 1 mM Na3VO4, 10 mM Beta-glycerol-phosphate, 1 mM DTT, 1 mM PMSF, 1/100 anti-protease) to adjust the final concentration of NaCl to 150 mM. Agarose anti-FlagM2 beads (40 μL) (Sigma, A2220) were added to each lysate and incubated overnight at 4 °C on a rotative system. The next day, beads were washed 5 times with the wash buffer (50 mM Tris pH 7.3, 150 mM NaCl, 0.5% Triton X100 (V/V), 1/500 anti-protease, 1 mM DTT, 1 mM PMSF). […] Following three elutions of 2 h each, the pooled fractions were incubated with 40 μL of anti-HA beads (Sigma A2095) overnight at 4 °C on a rotative system. […]

[1] = test system: H3K4 (recombinant histone octamers or mono-nucleosomes); assay: H3K4 histone methyltransferase assay; type: biochemical, human; details: purified complexes, 50 μM S-adenosyl-L-methionine, 8 h at 30 °C, n = 2
Description: Equivalent amounts of purified ASXL2 WT and ΔMBH complexes were incubated with 0.5 μg of reconstituted recombinant mono-nucleosomes or histone octamers as substrates. All HMT assays were performed in 50 mM Tris-HCl pH 8, 100 mM KCl, 5 mM MgCl2, 0.1 mM DTT, 10% glycerol in the presence of 50 μM S-adenosyl-L-methionine (Sigma, A7007). After an 8 h incubation at 30 °C, 4X Laemmli buffer was added, the samples run on 15% SDS-PAGE and transferred on nitrocellulose membrane. Immunoblotting was performed with an anti-H3K4me1 (Ab8895, rabbit polyclonal) diluted 1:1000 followed by HRP conjugated secondary goat anti-rabbit antibody (Sigma) used at a 1:10,000 dilution. The immunoblots were visualized using a Western Lightning plus-ECL reagent (Perkin-Elmer). Anti-H4 (Abcam, Ab7311, rabbit polyclonal) was used at a 1:2,500 dilution.

[2] = test system: active enhancer upstream of GRHL2 gene in K562 ASXL2 KD cells; assay: ChIP-qPCR at active enhancer upstream of GRHL2; type: cell-based, human; details: K562 ASXL2 KD cells complemented from AAVS1; IP/input corrected for total H3; three biological replicates
Text: K562 cell lines with knocked down expression of endogenous ASXL2 were obtained after double infection of lentivirus expressing Cas9 and 4 different gRNAs targeting the end of exon 1 (pLENTI_CRISPR_V2, co-selection by FACS with GFP). Clone 1 L was selected (obtained with gRNA 1: 5′-[…]-3′ cutting at the very end of exon 1) for transfection of WT and DMBH ASXL2 vectors for integration and stable expression from the AAVS1 safe harbor, as described for the tagged K562 cell lines used for purification. Expression levels of endogenous ASXL2, WT and ΔMBH ASXL2 were monitored by running SDS-PAGE and transferring onto nitrocellulose membrane. Anti-FLAG M2 conjugated to horseradish peroxidase (A8592, Sigma) was used at 1:10,000 dilution and anti-ASXL2, at 1:2,000 (Cell Signaling (E623X), CS71257, lot:1). Immunoblots were visualized using a Western Lightning plus ECL reagent (Perkin-Elmer).
Crosslinked chromatin from K562 cells and immunoprecipitations were prepared as previously described. For chromatin immunoprecipitation, 100 μg of chromatin was incubated with 2 μg anti-H2AK119ub (Cell Signaling, 8240S, D27C4 lot:9) or 3 μg anti-H3 (Abcam, ab1791, lot GR3421644-1), 2 μg anti-H3Kme1 (Abcam, ab8895, lot GR442591-1), 2 μg anti-H3K27ac (Thermo Fisher, MA5-23516, lot: ZA4181671) or 0.3 μg anti-H3K27me3 (Cell Signaling, C36B11, 9733 S lot:19) antibodies overnight at 4 °C. 25 μl of Protein A Dynabeads were then added to each sample, and the mixtures were incubated at 4 °C for 4 h. The beads were washed extensively and eluted with 1% SDS and 0.1 M NaHCO3. Cross-linked samples were reversed by heating overnight at 65 °C in the presence of 0.2 M NaCl. Samples were then treated with RNase A and proteinase K for 2 h, and DNA was recovered using MinElute PCR purification Kit (Qiagen, 28004) according to the manufacturer’s instructions. Quantitative real-time PCR corrected for primer efficiencies in the linear range was performed using SYBR Green I (Roche, 04877352001) on a LightCycler 480 (Roche). Primers for 5′ end of active enhancer: Fwd: 5′-[…]; Rev: 5′-[…]; For 3′ end: Fwd: 5′-[…], Rev: 5′-[…].

B1: ASXL2ΔMBH: ΔMBH ASXL2 mutant lacking the MLL3/4-binding domain (aa 650-670) (protein)
chain: MREKGRRKKGRTWAEAAKTVLEKYPNTPMSHKEILQVIQREGLKEIRSGTSPLACLNAMLHTNSRGEEGIFYKVPGRMGVYTLKKDVPDGVKELSEGSEESSDGQSDSQSSENSSSSSDGGSNKEGKKSRWKRKVSSSSPQSGCPSPTIPAGKVISPSQKHSKKALKQALKQQQQKKQQQQCRPSISISSNQHLSLKTVKAASDSVPAKPATWEGKQSDGQTGSPQNSNSSFSSSVKVENTLLGLGKKSFQRSERLHTRQMKRTKCADIDVETPDSILVNTNLRALINKHTFSVLPGDCQQRLLLLLPEVDRQVGPDGLMKLNGSALNNEFFTSAAQGWKERLSEGEFTPEMQVRIRQEIEKEKKVEPWKEQFFESYYGQSSGLSLEDSKKLTASPSDPKVKKTPAEQPKSMPVSEASLIRIVPVVSQSECKEEALQMSSPGRKEECESQGEVQPNFSTSSEPLLSSALNTHELSSILPIKCPKDEDLLEQKPVTSAEQESEKNHLTTASNYNKSESQESLVTSPSKPKSPGVEKPIVKPTAGAGPQETNMKEPLATLVDQSPESLKRKSSLTQEEAPVSWEKRPRVTENRQHQQPFQVSPQPFLNRGDRIQVRKVPPLKIPVSRISPMPFHPSQVSPRARFPVSITSPRAAAAAAAAAAAAASVGGTIPGPGPGGGQGPGEGGEGQTARGGSPGSDRVSETGKGPTLELAGTGSRGGTRELLPCGPETQPQSETKTTPSQAQPHSVSGAQLQQTPPVPPTPAVSGACTSVPSPAHIEKLDNEKLNPTRATATVASVSHPQGPSSCRQEKAPSPTGPALISGASPVHCAADGTVELKAGPSKNIPNPSASSKTDASVPVAVTPSPLTSLLTTATLEKLPVPQVSATTAPAGSAPPSSTLPAASSLKTPGTSLNMNGPTLRPTSSIPANNPLVTQLLQGKDVPMEQILPKPLTKVEMKTVPLTAKEERGMGALIATNTTENSTREEVNERQSHPATQQQLGKTLQSKQLPQVPRPLQLFSAKELRDSSIDTHQYHEGLSKATQDQILQTLIQRVRRQNLLSVVPPSQFNFAHSGFQLEDISTSQRFMLGFAGRRTSKPAMAGHYLLNISTYGRGSESFRRTHSVNPEDRFCLSSPTEALKMGYTDCKNATGESSSSKEDDTDEESTGDEQESVTVKEEPQVSQSAGKGDTSSGPHSRETLSTSDCLASKNVKAEIPLNEQTTLSKENYLFTRGQTFDEKTLARDLIQAAQKQMAHAVRGKAIRSSPELFSSTVLPLPADSPTHQPLLLPPLQTPKLYGSPTQIGPSYRGMINVSTSSDMDHNSAVPGSQVSSNVGDVMSFSVTVTTIPASQAMNPSSHGQTIPVQAFSEENSIEGTPSKCYCRLKAMIMCKGCGAFCHDDCIGPSKLCVSCLVVR
modifications: left off: 3xFlag, end not stated, kept | 2xStrep, end not stated, kept
GST-MLL3PHD2/3
  association in pull-down: essentially abolished
GST-MLL4PHD2/3
  association in pull-down: essentially abolished
PR-DUB complex
  association with PR-DUB complex: stably associates with the expected components of the PR-DUB complex
MLL3/4 complexes
  interaction with MLL3/4 complexes: abrogated the interaction between ASXL2 and MLL3/4 in vivo
H2AK119; BAP1/ASXL2 complexes from co-transfected HEK293FT cells, purified native nucleosomes, room temperature, n=2
  deubiquitinase activity toward H2AK119Ub in vitro: does not affect
H2AK119; purified complexes on human chromatin, 37 °C, 3 or 6 h, immunoblot
  de-ubiquitination of H2AK119: efficient and equivalent de-ubiquitination of H2AK119
[1]
  mono-methylation of H3K4: markedly decreased
[2]
  H2AK119ub level: not the ΔMBH ASXL2 mutant led to a decrease in H2AK119ub level
  H3K4me1 level: not affected
